Experimental data as given in patent publication US5639663, “Bifunctional genetic markers” (National Research Council of Canada, dated 1997).

Biological target: beta-glucuronidase (GUS), unfused, expressed from pGK1 (E. coli, UniProt P05804)
Experiment: molecular sieve chromatography (Superose 6) of E. coli extract co-expressing unfused GUS and NPT-II; enzyme activities of the fractions

B1: neomycin phosphotransferase-II (NPT-II), unfused, expressed from pGS39 (enzyme)
chain: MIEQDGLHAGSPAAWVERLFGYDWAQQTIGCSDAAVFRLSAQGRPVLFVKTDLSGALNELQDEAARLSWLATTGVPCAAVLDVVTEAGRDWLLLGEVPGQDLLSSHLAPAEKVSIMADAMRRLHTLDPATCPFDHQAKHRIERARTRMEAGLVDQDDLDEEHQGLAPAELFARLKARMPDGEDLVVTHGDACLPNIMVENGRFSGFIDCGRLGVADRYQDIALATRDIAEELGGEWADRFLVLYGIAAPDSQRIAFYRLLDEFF
**Q.** Does B1 bind?
**A.** no binding
